# Test results published in PMC3515695 (Nature structural & molecular biology, 2012).
# B1: full-length Caenorhabditis elegans TDP2 (enzyme, UniProt Q9XWG3 1-362, looked up)
# chain: MSNSDDEIQEIEAKRQKMSQEDSEVEIEILDEPEQGKLKNSSMSDEQKLHEFAIITATDEAFAQSILQDVDWDLKKALDVFYGSEAFAEARSAAVMGASSSMASSGAAVMTAEDLKGFEVSVMSWNIDGLDGRSLLTRMKAVAHIVKNVNPDILFLQEVVDRDLAPIDKLQSLYKIYYSNKGCQYYTAILVSKMFDVEKHDVIHFQNSGMYRTLQILEGSIGGLKVFLLNTHLESTREHRPQRCAQFGFCMDKVREIIAQNPGALVFFGGDLNLRDEEVSRVPDGVKDAWEAAGSDNKTKFTWDTFKNDNKQGFHGAKMRFDRLYWSGPLDKVKFTLEGRQRIRSCLCFPSDHWAINATFFA
# Molecular target: the molecule itself
# Assay: SAXS
protein,measurement,value
B1,stoichiometry N,2
